Laboratory results as given in patent US20220281998A1 (AZUSAPHARMA SCIENCES, published 2022).
Changes are numbered by the printed parent chain.

What was measured:
[1] = target: T1, human EpCAM on HCT116 cells (EpCAM-positive human colon cancer cell line) (human, UniProt P16422 24-314); assay: cell-based or functional assay
T1 sequence (looked up): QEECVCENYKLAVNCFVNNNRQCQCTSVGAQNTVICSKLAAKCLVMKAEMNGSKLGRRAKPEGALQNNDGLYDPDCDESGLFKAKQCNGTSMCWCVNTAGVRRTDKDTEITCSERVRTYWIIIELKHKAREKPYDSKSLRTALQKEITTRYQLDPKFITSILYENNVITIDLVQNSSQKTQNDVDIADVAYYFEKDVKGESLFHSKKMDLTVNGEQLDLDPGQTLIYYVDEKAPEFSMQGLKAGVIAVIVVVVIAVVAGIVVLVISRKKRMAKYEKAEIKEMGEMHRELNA

[2] = target: T2, human CD3E/CD3D heterodimer recombinant protein (manufactured by ACROBiosystems) (human, UniProt P07766 23-126; P04234 22-105); assay: sandwich ELISA: immobilised human CD3E/CD3D heterodimer, BsAb, biotinylated EpCAM
T2 construct: Bought reagent, immobilised on ELISA plates
T2 sequence (P07766 23-126 limits assumed, chain 1 of 2): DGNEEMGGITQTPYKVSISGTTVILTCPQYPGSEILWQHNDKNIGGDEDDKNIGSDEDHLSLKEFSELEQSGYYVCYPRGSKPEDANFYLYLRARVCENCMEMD
T2 sequence (P04234 22-105 limits assumed, chain 2 of 2): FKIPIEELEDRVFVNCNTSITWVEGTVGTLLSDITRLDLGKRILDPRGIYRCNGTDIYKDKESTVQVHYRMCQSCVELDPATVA
Procedure: 25 μL of a solution containing 2.5 μg/mL human CD3E/CD3D heterodimer recombinant protein (available from ACROBiosystems) was dispensed into each well of a 96-well plate, followed by standing overnight at 4° C. for immobilization. The solution after immobilization was removed, and each well was washed with 200 μL of PBS-T 3 times. Thereafter, 200 μL of a blocking solution (Blocking One, manufactured by NACALAI TESQUE, INC.) diluted 5-fold with distilled water was dispensed, followed by standing at 25° C. for 2 hours for blocking treatment. The blocking solution in each well was removed, and the well was washed with 200 μL of PBS-T 3 times. 100 (ng/mL) or 1000 (ng/mL) EpCAM×CD3 diabody-type BsAb and 100 (ng/mL) or 1000 (ng/mL) EGFR×CD3 diabody-type BsAb as a negative control were each diluted 50-fold with a signal enhancer HIKARI A solution (manufactured by NACALAI TESQUE, INC.) containing 1% BSA, and 25 μL of each solution was dispensed into each well after blocking, followed by standing at 25° C. for 2 hours for reaction treatment between the antibody (EpCAM×CD3 diabody-type BsAb) and the antigen (immobilized human CD3E/CD3D heterodimer recombinant protein). Thereafter, the solution in each well was removed, and the well was washed with 200 μL of PBS-T 3 times.

[3] = target: human EGFR on human cancer cell lines (HCT116, A-431, NCI-H1975, HT-29, RKO) (human, UniProt P00533 25-1210); assay: cell-based or functional assay
[4] = target: human PSMA on 22Rv1 cells (PSMA-positive human prostate cancer cell line) (human, UniProt Q04609 1-750); assay: cell-based or functional assay
Sequence of human PSMA on 22Rv1 cells (PSMA-positive human prostate cancer cell line) (Q04609 whole entry): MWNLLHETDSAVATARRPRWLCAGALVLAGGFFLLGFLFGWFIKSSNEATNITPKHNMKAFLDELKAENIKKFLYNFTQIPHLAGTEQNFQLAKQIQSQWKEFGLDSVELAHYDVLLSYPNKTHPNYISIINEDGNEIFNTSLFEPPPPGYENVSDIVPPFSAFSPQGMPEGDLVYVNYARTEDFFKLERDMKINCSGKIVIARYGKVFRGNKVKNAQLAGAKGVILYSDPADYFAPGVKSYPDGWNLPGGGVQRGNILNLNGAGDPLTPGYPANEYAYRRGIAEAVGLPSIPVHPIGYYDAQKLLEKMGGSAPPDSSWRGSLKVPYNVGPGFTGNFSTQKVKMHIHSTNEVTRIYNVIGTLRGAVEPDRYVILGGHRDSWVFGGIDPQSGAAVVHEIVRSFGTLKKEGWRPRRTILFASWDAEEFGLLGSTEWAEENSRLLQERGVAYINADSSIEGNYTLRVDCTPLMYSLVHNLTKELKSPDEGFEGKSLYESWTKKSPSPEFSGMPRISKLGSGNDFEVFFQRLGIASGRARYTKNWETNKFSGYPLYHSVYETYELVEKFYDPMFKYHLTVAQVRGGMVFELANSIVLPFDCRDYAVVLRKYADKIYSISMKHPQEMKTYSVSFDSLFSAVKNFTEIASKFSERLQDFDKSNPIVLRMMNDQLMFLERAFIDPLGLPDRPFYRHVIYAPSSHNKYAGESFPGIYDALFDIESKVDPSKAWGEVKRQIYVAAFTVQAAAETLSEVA

[5] = target: T2, human CD3E/CD3D heterodimer recombinant …; assay: sandwich ELISA: immobilised human CD3E/CD3D heterodimer, BsAb, biotinylated human EGFR
[6] = target: T2, human CD3E/CD3D heterodimer recombinant …; assay: sandwich ELISA: immobilised human CD3E/CD3D heterodimer, BsAb, biotinylated HER2
[7] = target: recombinant biotinylated human EGFR (manufactured by ACROBiosystems) (human, UniProt P00533 25-645, biotinylated (site not stated)); assay: sandwich ELISA: immobilised human CD3E/CD3D heterodimer, BsAb, detection with biotinylated human EGFR

B1: EUM-H diabody-type BsAb (EpCAM×CD3 diabody-type BsAb derived from EUM-H strain) (bispecific antibody)
chain 1: ATDIQMTQSPSSLSASVGDRVTITCRASQDIRNYLNWYQQKPGKAPKLLIYYTSRLESGVPSRFSGSGSGTDYTLTISSLQPEDFATYYCQQGNTLPWTFGQGTKVEIKAAGGGGSEVQLLEQSGAELVRPGTSVKISCKASGYAFTNYWLGWVKQRPGHGLEWIGDIFPGSGNIHYNEKFKGKATLTADKSSSTAYMQLSSLTFEDSAVYFCARLRNWDEPMDYWGQGTTVTVSSAAAEQKLISEEDLNLGGGMRGSHHHHHH
chain 2: ADELVMTQSPSSLTVTAGEKVTMSCKSSQSLLNSGNQKNYLTWYQQKPGQPPKLLIYWASTRESGVPDRFTGSGSGTDFTLTISSVQAEDLAVYYCQNDYSYPLTFGAGTKLEIKAAGGGGSEVQLVESGGGLVQPGGSLRLSCAASGYSFTGYTMNWVRQAPGKGLEWVALINPYKGVSTYNQKFKDRFTISVDKSKNTAYLQMNSLRAEDTAVYYCARSGYYGDSDWYFDVWGQGTLVTVSSAAAEQKLISEEDLNLGGGMRGSHHHHHH
notes: Secreted by Bifidobacterium longum 105-A carrying pEUM-H; purified through the His tag; also called EUM-H polypeptide 1 + EUM-H polypeptide 2
[1]
  EC50, cytotoxic activity on HCT116 cells with T-LAKs: 0.0173 nM
[2]
  binding result: binds

B2: LH22 diabody-type BsAb (EGFR×CD3 diabody-type BsAb derived from FOM-22H strain) (bispecific antibody)
chain 1: ATLTPDIQMTQSPSSLSASVGDRVTITCSASSSVSYMNWYQQTPGKAPKRWIYDTSKLASGVPSRFSGSGSGTDYTFTISSLQPEDIATYYCQQWSSNPFTFGQGTKLQITAAGGGGSQVQLQESGPGLVKPSQTLSLTCTVSGGSISSGDYYWSWIRQPPGKGLEWIGYIYYSGSTDYNPSLKSRVTMSVDTSKNQFSLKVNSVTAADTAVYYCARVSIFGVGTFDYWGQGTLVTVSSAAAEQKLISEEDLNLGGGMRGSHHHHHH
chain 2: ATLTPDIVMTQSPATLSLSPGERATLSCRASQSVSSYLAWYQQKPGQAPRLLIYDASNRATGIPARFSGSGSGTDFTLTISSLEPEDFAVYYCHQYGSTPLTFGGGTKAEIKAAGGGGSQVQLVQSGGGVVQPGRSLRLSCKASGYTFTRYTMHWVRQAPGKGLEWIGYINPSRGYTNYNQKVKDRFTISRDNSKNTAFLQMDSLRPEDTGVYFCARYYDDHYSLDYWGQGTPVTVSSAAAEQKLISEEDLNLGGGMRGSHHHHHH
[3]
  EC50: concentration that reduced the viability of HCT116 cells to 50% (T-LAK:HCT116 5:1, 24 h): 0.00025 nM

B3: HL-PUM-H diabody-type BsAb (PSMA×CD3 diabody-type BsAb derived from HL-PUM-H strain) (bispecific antibody)
chain 1: ATEVQLVESGGGLVQPGGSLRLSCAASGYSFTGYTMNWVRQAPGKGLEWVALINPYKGVSTYNQKFKDRFTISVDKSKNTAYLQMNSLRAEDTAVYYCARSGYYGDSDWYFDVWGQGTLVTVSSAAGGGGSDIQMTQSPSSLSASVGDRVTITCKASQNVDTNVAWYQQKPGQAPKSLIYSASYRYSDVPSRFSGSASGTDFTLTISSVQSEDFATYYCQQYDSYPYTFGGGTKLEIKAAAEQKLISEEDLNLGGGMRGSHHHHHH
chain 2: ADQVQLVESGGGLVKPGESLRLSCAASGFTFSDYYMYWVRQAPGKGLEWVAIISDGGYYTYYSDIIKGRFTISRDNAKNSLYLQMNSLKAEDTAVYYCARGFPLLRHGAMDYWGQGTLVTVSSAAGGGGSDIQMTQSPSSLSASVGDRVTITCRASQDIRNYLNWYQQKPGKAPKLLIYYTSRLESGVPSRFSGSGSGTDYTLTISSLQPEDFATYYCQQGNTLPWTFGQGTKVEIKAAAEQKLISEEDLNLGGGMRGSHHHHHH
[4]
  EC50, cytotoxic activity on 22Rv1 cells with T-LAKs: 0.233 nM

B4: LH31 diabody-type BsAb (EGFR×CD3 diabody-type BsAb derived from DUM-126H strain) (bispecific antibody)
chain 1: ATDIQMTQSPSSLSASVGDRVTITCRASQDIRNYLNWYQQKPGKAPKLLIYYTSRLESGVPSRFSGSGSGTDYTLTISSLQPEDFATYYCQQGNTLPWTFGQGTKVEIKAAGGGGSEVQLVESGGGLVQPGGSLRLSCAASGFTLSGDWIHWVRQAPGKGLEWLGEISAAGGYTDYADSVKGRFTISADTSKNTAYLQMNSLRAEDTAVYYCARESRVSFEAAMDYWGQGTLVTVSSAAAAEQKLISEEDLNLGGGMRGSHHHHHH
chain 2: ATDIQMTQSPSSLSASVGDRVTITCRASQDLATDVAWYQQKPGKAPKLLIYSASFLYSGVPSRFSGSGSGTDFTLTISSLQPEDFATYYCQQSEPEPYTFGQGTKVEIKAAGGGGSEVQLVESGGGLVQPGGSLRLSCAASGYSFTGYTMNWVRQAPGKGLEWVALINPYKGVSTYNQKFKDRFTISVDKSKNTAYLQMNSLRAEDTAVYYCARSGYYGDSDWYFDVWGQGTLVTVSSAAAEQKLISEEDLNLGGGMRGSHHHHHH
notes: Secreted by Bifidobacterium longum 105-A carrying plasmid p126; purified on protein L resin; also called LH31 polypeptide 1 + LH31 polypeptide 2 with SP50-L2
[3]
  EC50, viability of HCT116 cells with T-LAKs: 0.0084 nM
[5]
  binding result: binds

B5: LH-PUM-H diabody-type BsAb (PSMA×CD3 diabody-type BsAb derived from LH-PUM-H strain) (bispecific antibody)
chain 1: ATDIQMTQSPSSLSASVGDRVTITCRASQDIRNYLNWYQQKPGKAPKLLIYYTSRLESGVPSRFSGSGSGTDYTLTISSLQPEDFATYYCQQGNTLPWTFGQGTKVEIKAAGGGGSQVQLVESGGGLVKPGESLRLSCAASGFTFSDYYMYWVRQAPGKGLEWVAIISDGGYYTYYSDIIKGRFTISRDNAKNSLYLQMNSLKAEDTAVYYCARGFPLLRHGAMDYWGQGTLVTVSSAAAEQKLISEEDLNLGGGMRGSHHHHHH
chain 2: ADDIQMTQSPSSLSASVGDRVTITCKASQNVDTNVAWYQQKPGQAPKSLIYSASYRYSDVPSRFSGSASGTDFTLTISSVQSEDFATYYCQQYDSYPYTFGGGTKLEIKAAGGGGSEVQLVESGGGLVQPGGSLRLSCAASGYSFTGYTMNWVRQAPGKGLEWVALINPYKGVSTYNQKFKDRFTISVDKSKNTAYLQMNSLRAEDTAVYYCARSGYYGDSDWYFDVWGQGTLVTVSSAAAEQKLISEEDLNLGGGMRGSHHHHHH
[4]
  EC50, cytotoxic activity on 22Rv1 cells with T-LAKs: 0.155 nM

B6: LH36 diabody-type BsAb (HER2×CD3 diabody-type BsAb derived from CUM-36-1H strain) (bispecific antibody)
chain 1: ATLTPDIQMTQSPSSLSASVGDRVTITCKASQDVSIGVAWYQQKPGKAPKLLIYSASYRYTGVPSRFSGSGSGTDFTLTISSLQPEDFATYYCQQYYIYPYTFGQGTKVEIKAAGGGGSEVQLVESGGGLVQPGGSLRLSCAASGYSFTGYTMNWVRQAPGKGLEWVALINPYKGVSTYNQKFKDRFTISVDKSKNTAYLQMNSLRAEDTAVYYCARSGYYGDSDWYFDVWGQGTLVTVSSAAAEQKLISEEDLNLGGGMRGSHHHHHH
chain 2: ATDIQMTQSPSSLSASVGDRVTITCRASQDIRNYLNWYQQKPGKAPKLLIYYTSRLESGVPSRFSGSGSGTDYTLTISSLQPEDFATYYCQQGNTLPWTFGQGTKVEIKAAGGGGSEVQLVESGGGLVQPGGSLRLSCAASGFTFTDYTMDWVRQAPGKGLEWVADVNPNSGGSIYNQRFKGRFTLSVDRSKNTLYLQMNSLRAEDTAVYYCARNLGPSFYFDYWGQGTLVTVSSAAAEQKLISEEDLNLGGGMRGSHHHHHH
notes: Secreted by Bifidobacterium longum 105-A carrying pLH36-1; purified through the His tag; also called LH36 polypeptide 1 + LH36 polypeptide 2 (SP50-L2)
[6]
  binding result: binds
[7]
  binding result: no binding

B7: LH36 diabody-type BsAb (HER2×CD3 diabody-type BsAb derived from CUM-36-2H strain) (bispecific antibody)
chain 1: B6 chain 1
chain 2: B6 chain 2 with T2D
notes: Secreted by Bifidobacterium longum 105-A carrying pLH36-2; purified through the His tag; also called LH36 polypeptide 1 + LH36 polypeptide 2 (SP52-L2)
[6]
  binding result: binds

B8: LH9 diabody-type BsAb (EGFR×CD3 diabody-type BsAb derived from FLM-9H strain) (bispecific antibody)
chain 1: ATLTPDIVLTQSPATLSLSPGERATLSCRASQSVSYMNWYQQKPGKAPKRWIYDTSKVASGVPARFSGSGSGTDYSLTINSLEAEDAATYYCQQWSSNPLTFGGGTKVEIKAAGGGGSQVQLQESGPGLVKPSQTLSLTCTVSGGSISSGDYYWSWIRQPPGKGLEWIGYIYYSGSTDYNPSLKSRVTMSVDTSKNQFSLKVNSVTAADTAVYYCARVSIFGVGTFDYWGQGTLVTVSSAAAAEQKLISEEDLNLGGGMRGSHHHHHH
chain 2: ATLTPDIVMTQSPATLSLSPGERATLSCRASQSVSSYLAWYQQKPGQAPRLLIYDASNRATGIPARFSGSGSGTDFTLTISSLEPEDFAVYYCHQYGSTPLTFGGGTKAEIKAAGGGGSDVQLVQSGAEVKKPGASVKVSCKASGYTFTRYTMHWVRQAPGQGLEWIGYINPSRGYTNYADSVKGRFTITTDKSTSTAYMELSSLRSEDTATYYCARYYDDHYCLDYWGQGTTVTVSSAAAEQKLISEEDLNLGGGMRGSHHHHHH
[3]
  EC50: concentration that reduced the viability of HCT116 cells to 50% (T-LAK:HCT116 5:1, 24 h): 0.0022 nM
